{
  "source": "paper PMC8048298",
  "key": {"[1]": {"biological_target": "GST-SMARCA4-F4 (aa1009-1314) (human) (UniProt P51532)", "experiment": "ITC; peptide 1 mM in the syringe, protein 100 μM in the cell; 19 injections of 2 μl; PBS; 25 °C; MicroCal ITC-200"}, "[2]": {"biological_target": "GST-SMARCA4-F4 (aa1009-1314) (human) (UniProt P51532)", "experiment": "MST; SMARCA4 protein labelled with NT-647-NHS at 100 nM; peptides 10 nM to 500 μM; PBS pH 7.4, 0.05% Tween-20; 5 min incubation; Monolith NT.115; one-site binding (Kd formula)"}, "[3]": {"biological_target": "Flag-tagged SMARCA4 purified from HCT116 cells (human) (UniProt P51532)", "experiment": "MST; SMARCA4 protein labelled with NT-647-NHS at 100 nM; peptides 10 nM to 500 μM; PBS pH 7.4, 0.05% Tween-20; 5 min incubation; Monolith NT.115; one-site binding (Kd formula)"}},
  "data": [
    {"substance": "histone H4 N-terminal 20 amino acid peptide, Arg3 asymmetrically dimethylated (H4R3me2a), C-terminal biotin (from UniProt P62805 2-21)", "values": [
      {"measurement": "Kd", "setting": "[1]", "value": 2.41, "unit": "µM"},
      {"measurement": "Kd", "setting": "[2]", "value": 5.36, "unit": "µM"},
      {"measurement": "Kd", "setting": "[3]", "value": 6.27, "unit": "µM"}
    ]}
  ]
}
